Measurements taken from PMC12083643, “Closed State Structure of the Pore Revealed by Uncoupled Shaker K+ Channel” (Research Square, 2025).

Target: the molecule itself
Assay: cryo-EM structure; single-particle cryo-EM of the purified channel in 0.02% GDN, 150 mM KCl, 2 mM TCEP, 1 mM EDTA, 50 mM TRIS pH 7.5; about 0.7 mg/mL; refinement with C4 symmetry

B1: Shaker-IR-I384R (natural protein, UniProt P08510 1-655, looked up)
chain: MAAVALREQQLQRNSLDGYGSLPKLSSQDEEGGAGHGFGGGPQHFEPIPHDHDFCERVVINVSGLRFETQLRTLNQFPDTLLGDPARRLRYFDPLRNEYFFDRSRPSFDAILYYYQSGGRLRRPVNVPLDVFSEEIKFYELGDQAINKFREDEGFIKEEERPLPDNEKQRKVWLLFEYPESSQAARVVAIISVFVILLSIVIFCLETLPEFKHYKVFNTTTNGTKIEEDEVPDITDPFFLIETLCIIWFTFELTVRFLACPNKLNFCRDVMNVIDIIAIIPYFITLATVVAEEEDTLNLPKAPVSPQDKSSNQAMSLAILRVIRLVRVFRIFKLSRHSKGLQRLGRTLKASMRELGLLIFFLFIGVVLFSSAVYFAEAGSENSFFKSIPDAFWWAVVTMTTVGYGDMTPVGVWGKIVGSLCAIAGVLTIALPVPVIVSNFNYFYHRETDQEEMQSQNFNHVTSCPYLPGTLGQHMKKSSLSESSSDMMDLDDGVESTPGLTETHPGRSAVAPFLGAQQQQQQPVASSLSMSIDKQLQHPLQQLTQTQLYQQQQQQQQQQQNGFKQQQQQTQQQLQQQQSHTINASAAAATSGSGSSGLTMRHNNALAVSIETDV
notes: Subcloned into a modified pEG BacMam vector with a C-terminal HRV 3C protease site, eGFP and 8x-His; the channel was released from the beads by HRV 3C protease; PDB 7SIP (Shaker-IR without I384R) was the template for model building; also called uncoupled channel; uncoupled I384R mutant; not shown: eGFP, C-terminal, cleaved; 8x-His, C-terminal, cleaved
Q: How did the “stoichiometry N” value turn out when B1 was run?
A: 4
